Measured values taken from patent US20220057411A1 (PERSEUS SCIENCE GROUP, published 2022).
Blank lines part the entries; values can stand above or below the binder they belong to.

Columns and labels:
[1] = biological target: PKCg 49-52 kDa proteolytic fragment (human); test: chemiluminescent capillary Western/ELISA on human plasma; 49-52 kDa band; sample signal at ROC cut-off
Experimental: (§1) The Sensitivity was calculated using (=SUM individual disease samples)/total of all disease samples). False Positives were calculated using the (=SUM each individual healthy sample/total of all healthy samples). Specificity is defined as (1-False Positives). This statistical method maximizes sensitivity and identifies the probability of false positives. The cut-off point for each ROC curve between healthy and disease samples was calculated and then related to the total chemiluminescence signal that is represented by those probabilities. The cut-off for each sample cohort stained with PKC11, PKC13, and PKC14 antibodies are represented by a line in each graph below.
(§2) Briefly, to conduct the chemiluminescent capillary ELISA in this example, reagents and individual plasma from Normal vs. TBI clinical samples were loaded into an automated Western blot machine (using the Auto-Western service from RayBiotech Life, Inc). In the first step, sample is loaded into the capillary automatically. Proteins are then separated by size as they electophoretically migrate through a stacking and separation matrix. The separated proteins are then immobilized on the capillary wall via a proprietary photoactivated capture chemistry. […] An electropherogram is produced which plots the baseline, molecular weight and quantitative chemiluminescence signal of each peak. The quantitative signal was derived for each molecular weight band in every electropherogram. Each quantitative chemiluminescence signal was generated using the following formula; (C2-C1/C1), where C2 equals Area Under the Curve and C1 equals the baseline for that sample. […] The resulting specific chemiluminescence signal was detected and quantitated, with sensitivity down in the picograms/ml range, providing a direct measure of TBI biomarkers, i.e., PKCg, and/or PKCg proteolytic fragments.

[2] = biological target: PKCg 49-52 kDa proteolytic fragment (human); test: chemiluminescent capillary Western/ELISA on human plasma; 49-52 kDa band; signal at ROC cut-off
Experimental: as §1, §2

[3] = biological target: T1, PKCg 33-36 kDa proteolytic fragment (human); test: chemiluminescent capillary Western/ELISA on human plasma (stroke vs normal); signal at the ROC point
T1 construct: also called 32-36 kDa fragment
Experimental: as §1
(§3) Briefly, to conduct the chemiluminescent capillary ELISA in this example, reagents and individual plasma from Normal vs. TBI clinical samples were loaded into an automated Western blot machine (using the Auto-Western service from RayBiotech Life, Inc). In the first step, sample is loaded into the capillary automatically. Proteins are then separated by size as they electophoretically migrate through a stacking and separation matrix. The separated proteins are then immobilized on the capillary wall via a proprietary photoactivated capture chemistry. Target proteins, i.e., PKCg and/or PKCg proteolytic fragments were identified using a primary antibody, e.g., the rabbit monoclonal antibodies described herein, and immunoprobed with an HRP-conjugated secondary goat anti-rabbit IgG antibody and chemiluminescent substrate. An electropherogram is produced which plots the baseline, molecular weight and quantitative chemiluminescence signal of each peak. The quantitative signal was derived for each molecular weight band in every electropherogram. Each quantitative chemiluminescence signal was generated using the following formula; (C2-C1/C1), where C2 equals Area Under the Curve and C1 equals the baseline for that sample. This specific chemiluminescence measure was used in comparisons of all normal human plasma compared to TBI or stroke plasma samples after staining with antibodies, i.e., PKC11, PKC13, or PKC14. Statistical comparisons were made using GraphPad Prism 8 software. The resulting specific chemiluminescence signal was detected and quantitated, with sensitivity down in the picograms/ml range, providing a direct measure of TBI biomarkers, i.e., PKCg, and/or PKCg proteolytic fragments.

[4] = biological target: T2, full-length human Protein Kinase C, gamma isoform (PKCg), 63-73 kDa (human, UniProt P05129 1-697); test: as above
T2 construct: also called PKCγ; full-length PKCg (63-73 kDa)
Experimental: as §1, §3

[5] = biological target: PKCg 53-60 kDa proteolytic fragment (human); test: as above
Experimental: as §1, §3

[6] = biological target: higher molecular weight band at 95-105 kDa (human); test: as above
Experimental: as §1, §3

[7] = biological target: PKCg 42-48 kDa proteolytic fragment (human); test: as above
Experimental: as §1, §3

[8] = biological target: T2, full-length human Protein Kinase C, …; test: conclusion; clones came from ELISA/MAPIA screening against PKCg
[9] = biological target: PKCg 49-52 kDa proteolytic fragment (human); test: chemiluminescent capillary Western/ELISA on human plasma; 49-52 kDa band; normal plasma sample
Experimental: as §1
Briefly, to conduct the chemiluminescent capillary ELISA in this example, reagents and individual plasma from Normal vs. TBI clinical samples were loaded into an automated Western blot machine (using the Auto-Western service from RayBiotech Life, Inc). In the first step, sample is loaded into the capillary automatically. […] An electropherogram is produced which plots the baseline, molecular weight and quantitative chemiluminescence signal of each peak. The quantitative signal was derived for each molecular weight band in every electropherogram. Each quantitative chemiluminescence signal was generated using the following formula; (C2-C1/C1), where C2 equals Area Under the Curve and C1 equals the baseline for that sample. […]

B1: PKC14 (7H1/7K3) rabbit anti-PKCg monoclonal antibody (antibody, V domains shown)
VH: QSLEESGGDLVQPGASLTLTCTASGFTLTTYWICWVRQAPGKGLEWVACILTGSGSTYYASWVNGRFTISKTSSTTVTLQMTSLTAADTATYFCARYGGDATYNENLWGQGTLVTVSS
VL: AQVLTQTPSSVSAAVGGTVTINCQASQSVYNNNRLSWYQQKPGQPPKRLIYGVSTLYYGVSSRFKGSGSGTQFTLTISGMQCDDAAIYYCLGGYDCASADCYAFGGGTEVVVK
notes: Rabbit IgG heavy chain and rabbit kappa light chain; Entries as printed seem to include a leader; no cleavage site is stated; also called mAb PKC14
- chemiluminescence signal (ROC cut-off, TBI) [1]: 299 chemiluminescence units
- chemiluminescence signal (ROC cut-off, stroke) [2]: 257 chemiluminescence units
- Signal Chemiluminescence [3]: 230 chemiluminescence units
- Signal Chemiluminescence [4]: 866 chemiluminescence units
- Signal Chemiluminescence [5]: 654 chemiluminescence units
- Signal Chemiluminescence [6]: 443 chemiluminescence units
- Signal Chemiluminescence [7]: 633 chemiluminescence units

B3: PKC11 (1H1/1K1) rabbit anti-PKCg monoclonal antibody (antibody, V domains shown)
VH: QSVEESGGRLVTPGTPLALTCTVSGFSLNYYAMNWVRQAPVKGLEWIGVITSDTTYYASWAKGRFTISKTSTTVELQITSPTTEDTATYFCASGGSTTSPALWGQGTLVTVSS
VL: AQVLTQTPSPVSAAVGSTVTINCQASQSVWSKNYLSWFQQKPGQPPKQLIYSASTLASGVPSRFSGSGSGTQFTLTISDVQCDDAATYYCLGSYDCRSADCWTFGGGTEVVVK
notes: Rabbit IgG heavy chain and rabbit kappa light chain; also called mAb PKC11
- chemiluminescence signal (ROC cut-off, TBI) [1]: 710 chemiluminescence units
- chemiluminescence signal (ROC cut-off, stroke) [2]: 797 chemiluminescence units
- Signal Chemiluminescence [3]: 126 chemiluminescence units
- Signal Chemiluminescence [4]: 1770 chemiluminescence units
- Signal Chemiluminescence [5]: 1540 chemiluminescence units
- Signal Chemiluminescence [7]: 637 chemiluminescence units
- chemiluminescence signal (normal plasma sample, false positive) [9]: 630 chemiluminescence units

B5: PKC13 (5H1/5K1) rabbit anti-PKCg monoclonal antibody (antibody, V domains shown)
VH: QEQLKESGGGLVTPGGTLTLTCTVSGFSLSSYAMSWVRQAPGKGLEWIGIIISGGSAYYATWAKGRFTISKTSTTVDLSITSPTTEDTATYFCARAKSGTYTGDYFTLWGQGTLVTVSS
VL: AFELTQTPASVEAAVGGTVTIKCQASESIGNALAWYQQKPGQPPKLLIYRASTLESGVPSRFKGSGSGTEFTLTISDLECADAATYYCQSYVGSRSTGYNVFGGGTEVVVK
notes: Rabbit IgG heavy chain and rabbit kappa light chain; Entries as printed seem to include a leader; no cleavage site is stated; also called mAb PKC13; PCK13
- chemiluminescence signal (ROC cut-off, TBI) [1]: 658 chemiluminescence units
- chemiluminescence signal (ROC cut-off, stroke) [2]: 999 chemiluminescence units
- Signal Chemiluminescence [3]: 319 chemiluminescence units
- Signal Chemiluminescence [5]: 3350 chemiluminescence units
- Signal Chemiluminescence [7]: 2210 chemiluminescence units

Second part, the binder after the results:

- binding result [8]: binds
B2: 20H1/20K3 rabbit anti-PKCg monoclonal antibody clone (antibody, V domains shown)
VH: QSVEESGGRLVTPGTPLTLTCTVSGIDLSSNAMNWVRQAPGKGLEWIGIIGFSGSTNYASWAKGRFTISKTSTTVDLKITSPTTEDTATYFCARGGLNIGMNLWGQGTLVTVSS
VL: AQVLTQTPSPVSAAVGGTVPISCQSSQSVYDNNWLAWYQQKPGQPPKLLVYYASTLASGVPSRFKGSGSGTQFTLTINDLECDDAATYYCAGGYGDTNGGASSFGGGTEVVVK
notes: Rabbit IgG heavy chain and kappa light chain; Entries as printed seem to include a leader; no cleavage site is stated

- binding result [8]: binds
B4: 4H1/4K1 rabbit anti-PKCg monoclonal antibody clone (antibody, V domains shown)
VH: QSVEESGGRLVTPGTPLTLTCTVSGFSLSLSRNAVSWVRQAPGKGLEWTGIIFGDAKTYYASWAKGRFTISKTATTVDLKITSLTTEDTATYFCVAGTGLWGQGTLVTVSS
VL: AQVLTQTASPVSAAVGSTVTINCQASQSVYNKNRLSWYQQKPGQPPKRLIYSSSTLDSGVPLRFSGSGSGTQFTLTISGVQCDDAATYYCLGSYDCSSADCNAFGGGTEVVVK
notes: as for B2
